The target in data set [1] is GST-XIP (D39A) [GST: P08515].
The target of data set [2] is GST-XIP (D25A, D70A, D80A).

Experimental findings from patent US20060217299 are described below.

B1: caspase-1 (Calbiochem, Co., Ltd.) (protein)
chain: NPAMPTSSGSEGNVKLCSLEEAQRIWKQKSAEIYPIMDKSSRTRLALIICNEEFDSIPRRTGAEVDITGMTMLLQNLGYSVDVKKNLTASDMTTELEAFAHRPEHKTSDSTFLVFMSHGIREGICGKKHSEQVPDILQLNAIFNMLNTKNCPSLKDKPKVIIIQACRGDSPGVVWFKDSVGVSGNLSLPTTEEFEDDAIKKAHIEKDFIAFCSSTPDNVSWRHPTMGSVFIGRLIEHMQEYACSCDVEEIFRKVRFSFEQPDGRAQMPTTERVTLTRCFYLFPGH
In the case of B1, the “caspase-1 protease assay (SDS-PAGE, western blotting with anti-GST antibody)” value in the data set with GST-XIP (D58A) is “fragment located at the higher molecular weight side was detected; fragment located at the lower molecular weight side was detected when using GST-XIP (D58A)”; with GST-XIP (D25A, D70A), “When using GST-XIP (D25A, D70A) as a substrate, a new fragment other than the aforementioned fragments was detected”; in data set [1], “fragment located at the higher molecular weight side was detected; fragment located at the lower molecular weight side was detected when using GST-XIP (D39A)”; in the data set with GST-XIP (D70A) it was “fragment located at the higher molecular weight side not detected when using GST-XIP (D70A); fragment located at the lower molecular weight side was detected”; in the data set with GST [GST: P08515] it was “GST was not cleaved by caspase-1”; in the data set with GST-XIP (D25A) it was “fragment located at the higher molecular weight side was detected; fragment located at the lower molecular weight side not detected when using GST-XIP (D25A)”. Further, the “caspase-1 protease assay (SDS-PAGE, western blotting with anti-GST antibody)” value in data set [2] is listed as “This fragment was not detected when using GST-XIP (D25A, D70A, D80A) as a substrate”.
